Measured values published in article PMC4783942, “Microwave-Assisted Synthesis of Glycoconjugates by Transgalactosylation with Recombinant Thermostable β-Glycosidase from Pyrococcus” (International Journal of Molecular Sciences, 2016).

Substrate: CC(=O)N[C@@H]1[C@@H](O)[C@H](O)[C@@H](CO)O[C@H]1NC(=S)NCCNC(=O)OC(C)(C)C
Test: transgalactosylation kinetics, HPLC
Assay type: biochemical, Pyrococcus woesei
Settings: acceptor substrate varied, donor lactose, 85 °C thermal heating, citrate-phosphate buffer pH 5.5

B1: β-glycosidase from Pyrococcus woesei (DSM 3773) (Pyrococcus woesei; T436I) (protein)
chain: MFPEKFLWGVAQSGFQFEMGDKLRRNIDTNTDWWHWVRDKTNIEKGLVSGDLPEEGINNYELYEKDHEIARKLGLNAYRIGIEWSRIFPWPTTFIDVDYSYNESYNLIEDVKITKDTLEELDEIANKREVAYYRSVINSLRSKGFKVIVNLNHFTLPYWLHDPIEARERALTNKRNGWVNPRTVIEFAKYAAYIAYKFGDIVDMWSTFNEPMVVVELGYLAPYSGFPPGVLNPEAAKLAILHMINAHALAYRQIKKFDTEKADKDSKEPAEVGIIYNNIGVAYPKDPNDSKDVKAAENDNFFHSGLFFEAIHKGKLNIEFDGETFIDAPYLKGNDWIGVNYYTREVVTYQEPMFPSIPLITFKGVQGYGYACRPGTLSKDDRPVSDIGWELYPEGMYDSIVEAHKYGVPVYVTENGIADSKDILRPYYIASHIKMIEKAFEDGYEVKGYFHWALTDNFEWALGFRMRFGLYEVNLITKERIPREKSVSIFREIVANNGVTKKIEEELLRG
notes: N-terminal His6-tag (pETDuet-1, tag kept), E. coli Rosetta2(DE3)pLysS; cloned gene differs from AF043283.1 by T436I, as in P. furiosus E08095.1 / AAC44387.1
In the case of B1, the Km is reported as 15.6 mM.
